Measured values reported in publication PMC2835750, “A Direct Interaction with NEDD1 Regulates γ-Tubulin Recruitment to the Centrosome” (PLoS ONE, 2010).
Where a chain is given by its changes, count along the chain named. Numbers in names are those of the source.

B1: NEDD1 CTD L642Q, GST removed (domain or fragment, human, UniProt Q8NHV4 572-660, looked up)
chain: ADSIGNNRQNAPLTSIQIRFIQNMIQETLDDFREACHRDIVNLQVEMIKQFHMQLNEMHSLLERYSVNEGQVAEIERLREENKRLRAHF
notes: source: E. coli BL21 star (DE3), purified (glutathione resin, thrombin, SEC)
B2: NEDD1 CTD Y636A/S637A, GST removed (domain or fragment, human, UniProt Q8NHV4 572-660, looked up)
chain: B1 chain with Y65A, S66A, Q71L
notes: also called YS (Y636A/S637A) mutant NEDD1; source: E. coli BL21 star (DE3), purified (glutathione resin, thrombin, SEC)
B3: NEDD1 CTD (residues 572–660), GST removed (domain or fragment, human, UniProt Q8NHV4 572-660, looked up)
chain: B1 chain with Q71L
notes: calculated mass 10.5 kDa; also called NEDD1 CTD WT; purified CTD; source: E. coli BL21 star (DE3), purified (glutathione resin, thrombin, SEC)
B4: NEDD1 CTD L642Q/L649Q/L656Q (3xLQ), GST removed (domain or fragment, human, UniProt Q8NHV4 572-660, looked up)
chain: B1 chain with L78Q, L85Q
notes: also called triple 3×LQ; triple 3xLQ; source: E. coli BL21 star (DE3), purified (glutathione resin, thrombin, SEC)
B5: NEDD1 fragment (residues 549–660) (domain or fragment, human, UniProt Q8NHV4 549-660, looked up)
chain: STPNPKIASSVTAGVASSLSEKIADSIGNNRQNAPLTSIQIRFIQNMIQETLDDFREACHRDIVNLQVEMIKQFHMQLNEMHSLLERYSVNEGLVAEIERLREENKRLRAHF
notes: NEDD1, human, residues 549-660; predicted mass 12.8 kDa; also called additional fragment of NEDD1 that included residues 549–660

Assays:
[1] = biological target: the molecule itself; experiment: SEC-MALS; Superdex 200 HR 10/30, 50 mM NaP, 300 mM NaCl, 1 mM DTT, pH 8.0; oligomeric state
[2] = biological target: the molecule itself; experiment: SEC-MALS; data not shown; single peak not affected by dilution; oligomeric state

Row | Protein | stoichiometry N [1] | stoichiometry N [2]
1 | B1 | 4 | 
2 | B2 | 4 | 
3 | B3 | 4 | 
4 | B4 | 4 | 
5 | B5 |  | 4
